Test results: patent US20190389961A1 (INNATE PHARMA, published 2019)

How the values were obtained:
[1] = molecular target: T1, human CD39 (vascular CD39, NTPDase1) expressed at the surface of cells (human, UniProt P49961 1-510); experiment: flow cytometry on Ramos lymphoma cells, second set of experiments
T1 construct: also called huCD39; CHO-huCD39
T1 sequence: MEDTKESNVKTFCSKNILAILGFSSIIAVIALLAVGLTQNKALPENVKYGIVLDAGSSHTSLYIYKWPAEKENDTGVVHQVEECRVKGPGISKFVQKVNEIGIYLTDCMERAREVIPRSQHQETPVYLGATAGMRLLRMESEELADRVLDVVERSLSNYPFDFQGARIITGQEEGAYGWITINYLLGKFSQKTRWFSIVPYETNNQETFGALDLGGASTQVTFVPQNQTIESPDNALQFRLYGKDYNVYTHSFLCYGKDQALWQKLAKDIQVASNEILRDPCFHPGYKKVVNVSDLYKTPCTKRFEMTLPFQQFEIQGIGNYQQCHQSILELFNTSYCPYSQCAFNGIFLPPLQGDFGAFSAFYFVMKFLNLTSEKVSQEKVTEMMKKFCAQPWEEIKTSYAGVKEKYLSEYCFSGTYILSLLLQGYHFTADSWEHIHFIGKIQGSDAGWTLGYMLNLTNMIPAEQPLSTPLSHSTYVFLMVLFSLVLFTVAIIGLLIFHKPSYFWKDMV
Method: Cells were incubated with various concentration of unlabeled anti-CD39 antibody from 30 μg/ml to 5×10-⁴ μg/ml, for 30 minutes at 4° C. After washes, cells were incubated with Goat anti-mouse H+L labeled secondary antibody for 30 min at 4° C.

[2] = molecular target: T2, human CD39 mutant 19 (human, UniProt P49961 1-510); experiment: flow cytometry on Hek-293T cells expressing CD39 mutant 19 (panel M19); unstained (US) median 8,98; antibody concentration not shown
T2 construct: Expressed on Hek-293T cells; also called M19
T2 chain: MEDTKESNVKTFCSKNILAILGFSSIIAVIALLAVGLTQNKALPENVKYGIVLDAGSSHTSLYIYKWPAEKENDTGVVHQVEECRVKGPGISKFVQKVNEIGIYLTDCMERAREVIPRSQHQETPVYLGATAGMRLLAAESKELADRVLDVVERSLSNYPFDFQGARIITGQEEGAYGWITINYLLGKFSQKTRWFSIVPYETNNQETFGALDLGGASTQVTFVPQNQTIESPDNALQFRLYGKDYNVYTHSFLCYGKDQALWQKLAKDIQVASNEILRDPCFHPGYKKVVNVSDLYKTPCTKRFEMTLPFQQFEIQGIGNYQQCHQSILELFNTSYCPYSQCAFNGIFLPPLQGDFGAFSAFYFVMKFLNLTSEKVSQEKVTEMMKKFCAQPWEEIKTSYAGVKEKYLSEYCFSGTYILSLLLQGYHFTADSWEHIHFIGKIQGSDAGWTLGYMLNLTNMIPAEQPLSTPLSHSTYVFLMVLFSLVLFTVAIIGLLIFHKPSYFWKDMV
Method: Mutants were transfected in Hek-293T cells, as shown in the table 1, using numbering of SEQ ID NO: 1. […] Mutant 19 includes substitutions at residues R138, M139 and E142.
In order to define the epitopes of the further anti-CD39 antibodies of Example 5, they were tested for loss of binding to the panel of CD39 mutants as described in Example 1 and Table 1. Mutants were transfected in Hek-293T cells, as shown in the table 1, using numbering of SEQ ID NO: 1.Dose-ranges of test antibodies (10-2.5-0.625-0.1563-0.0391-0.0098-0.0024-0.0006 μg/ml) are tested on the 20 generated mutants by flow cytometry.

[3] = molecular target: T3, recombinant human CD39-L4 (NTPDase5, ENTPD5) (human, UniProt O75356 25-428); experiment: ELISA on plate-coated recombinant huCD39 L4; the single curve has no legend on the sheet, I-394 by the legend paragraph 70
T3 construct: Genbank NP_001240 (precursor) is printed
T3 sequence: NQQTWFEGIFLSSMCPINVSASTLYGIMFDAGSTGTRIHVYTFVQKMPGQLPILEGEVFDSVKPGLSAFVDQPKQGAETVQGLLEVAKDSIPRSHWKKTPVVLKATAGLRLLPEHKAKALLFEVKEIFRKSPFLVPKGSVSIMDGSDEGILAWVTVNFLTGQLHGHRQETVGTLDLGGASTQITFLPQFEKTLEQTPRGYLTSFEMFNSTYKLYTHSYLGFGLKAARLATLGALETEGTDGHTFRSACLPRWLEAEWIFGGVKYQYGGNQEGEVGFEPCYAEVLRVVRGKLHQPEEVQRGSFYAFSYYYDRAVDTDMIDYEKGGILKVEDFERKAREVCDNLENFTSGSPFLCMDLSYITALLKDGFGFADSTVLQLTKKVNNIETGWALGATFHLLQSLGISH
Method: (§1) Wells were washed in TBS Tween 20, and further saturated 2H at RT in TBS Blocking buffer. Dose range concentration of primary antibody was incubated in TBS blocking buffer for 2 h at RT. Wells were washed in TBS Tween 20. […] Optical density was measured on Enspire™ at OD=450.

[4] = molecular target: T4, recombinant human CD39-L3 (NTPDase3, ENTPD3) (human, UniProt O75355 44-485, limits assumed); experiment: ELISA on plate-coated recombinant huCD39 L3; the single curve has no legend on the sheet, I-394 by the legend paragraph 70
T4 construct: Genbank NP_001239 is printed
T4 sequence: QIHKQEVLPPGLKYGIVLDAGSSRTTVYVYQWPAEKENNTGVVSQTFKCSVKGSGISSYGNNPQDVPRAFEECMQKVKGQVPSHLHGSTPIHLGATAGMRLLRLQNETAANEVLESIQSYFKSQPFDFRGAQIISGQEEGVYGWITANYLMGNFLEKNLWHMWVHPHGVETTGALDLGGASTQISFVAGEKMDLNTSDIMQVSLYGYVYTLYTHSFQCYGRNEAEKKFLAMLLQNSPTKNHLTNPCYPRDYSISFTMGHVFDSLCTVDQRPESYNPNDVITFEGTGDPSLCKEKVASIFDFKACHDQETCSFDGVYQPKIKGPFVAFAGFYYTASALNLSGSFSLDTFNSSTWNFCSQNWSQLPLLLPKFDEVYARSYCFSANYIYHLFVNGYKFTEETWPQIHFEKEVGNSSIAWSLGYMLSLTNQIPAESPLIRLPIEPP
Method: as §1

B1: antibody I-394 (antibody, V domains shown)
VH: EVQLQQSGPELVKPGASVKMSCKASGYTFTDYNMHWVKQSHGRTLEWIGYIVPLNGGSTFNQKFKGRATLTVNTSSRTAYMELRSLTSEDSAAYYCARGGTRFAYWGQGTLVTVSA
VL: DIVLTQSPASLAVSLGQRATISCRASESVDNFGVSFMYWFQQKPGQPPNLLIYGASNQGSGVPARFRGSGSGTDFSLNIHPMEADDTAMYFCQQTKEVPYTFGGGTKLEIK
notes: Mouse variable regions; Produced in CHO with human IgG1 constant domains carrying L234A/L235E/G237A/A330S/P331S (Kabat EU numbering) and a human Ck constant domain
B1 was tested, and the EC50 [1] was 0.19 µg/mL, the “Median : Comp-Alexa Fluor 647-A” value [2] was 24.4 and the binding result [3] was “no binding (tested: about 50 µg/ml)”. B1: no binding (tested: about 50 µg/ml) [4].
